No end group written: not given here.
Molecular target: T1, CGGHEDT (SEQ ID NO: 17) conjugated to Ovalbumin (also: conjugated to ovalbumin)
T1 construct: Peptide-carrier conjugate used as the ELISA antigen
T1 peptide: CGGHEDT
Test: competitive binding ELISA
Excerpt: A competitive binding ELISA has been established to measure binding of humanized 2A4 to its antigen (CGGHEDT (SEQ ID NO: 17) when conjugated to Ovalbumin) compared to the reference standard.

binding result: binds
B1: humanized 2A4 antibody (IgG1, kappa isotype version of murine 2A4) (antibody, V domains shown)
VH: EVQLVESGGGLVQPGGSLRLSCAASGFTFNTYAMYWIRQAPGKGLEWVARIRSKSNNYAIYYADSVKDRFTISRDDSKNSLYLQMNSLKTEDTAVYYCARPYSDSFAYWGQGTLVTVSS
VL: DVVMTQSPLSLPVTPGEPASISCRSSQSLVHSTGNTYLHWYLQKPGQSPQLLIYKVSNRFSGVPDRFSGSGSGTDFTLKISRVEAEDVGVYYCSQSTHVPFTFGGGTKVEIKR
modifications: N-linked glycosylation at the consensus sequence, positions 299 to 301
notes: Human IgG1 of G1m(3) allotype, kappa; also called h2A4; humanized 2A4 drug substance

Source: US20140302021A1 (ONCLAVE THERAPEUTICS, published 2014)
